Reference: US5698519A, “Polypeptide specifically inhibiting cathepsin L” (Taiho Pharmaceutical Co., Ltd., priority 1993, dated 1997)

How the values were obtained:
[1] = biological target: cathepsin B; experiment: Enzymatic inhibitory activity against cathepsin B (stopped assay); type: biochemical; settings: cathepsin B 130 nM, Elstatin 50-750 nM, pH 6.0, 25° 20 minutes, Bz-DL-Arg-2-naphthylamide
Procedure: (§1) Equilibrium dissociation constant (Ki) of Elstatin and cathepsin B and H was determined using stopped assay method. In detail, cathepsin B (final concentration: 130 nM) and cathepsin H (final concentration: 25 nM) were incubated together with different concentrations of Elstatin (final concentration: 50-750 nM) in 0.1M phosphate buffer (pH 6.0) containing 2 mM of dithiothreitol and 1.5 mM of EDTA at 25° for 20 minutes. The residual activity was determined using Bz--DL--Arg-2-naphthylamide as a substrate conditions identical to those according to Barrett, A. J. and Kirschke, H. mentioned above. The value Ki was calculated using a method of Henderson (Biochem. J. 127, 321-333 (1972)).

[2] = biological target: papain; experiment: Enzymatic inhibitory activity against papain (kinetic analysis, Z-Phe-Arg-AMC substrate); type: biochemical; settings: papain 380 pM, substrate Z-Phe-Arg-AMC 5 μM, 0.1M phosphate buffer pH 6.0
Procedure: (§2) The inhibitory activity of Elstatin (polypeptide of the present invention) against papain and cathepsin L was measured by the method of Barrett, A. J. and Kirschke, H. described in Method Enzymol., 80, 535-561 (1981) using Bz--DL--Arg-2-naphthylamide or Z--Phe--Arg--MCA as a substrate (Bz, Z and AMC represent benzoyl, benzyloxycarbonyl, and 4-methyl-7-coumarylamide).
(§3) The active site of the enzyme was titrated using a cysteine protease inhibitor Ep-475 (L-3-carboxy-trans-2,3-epoxypropyl-leucylamide-(3-guanizino)butane). Papain which had undergone the titration of active site was used to determine the molarity of the inhibitor (Turk, B. et al. J. Biol. Chem. 268, 7323-7329 (1993)).
(§4) The rate of the reaction employing Z--Phe--Arg--AMC as a substrate was determined by the kinetic analysis of Elstatin, papain, and cathepsin L. Different concentrations of Elstatin and a substrate (papain: 5 μM, cathepsin L: 10 μM) were dissolved in 1.97 ml of a buffer solution described above. In the measurement of cathepsin L, 0.34M acetate buffer (pH 5.5) containing 2 mM dithiothreitol and 1.5 mM EDTA was used. The reaction was started by the addition of 30 μl of activated papain (final concentration: 380 pM) and cathepsin L (final concentration: 60 pM). […] The obtained data were analysed by a non-linear regression analysis of Morrison (Trends Biochem. Sci. 7, 102-105 (1982)).

[3] = biological target: cathepsin H; experiment: Enzymatic inhibitory activity against cathepsin H (stopped assay); type: biochemical; settings: cathepsin H 25 nM, Elstatin 50-750 nM, pH 6.0, 25° 20 minutes, Bz-DL-Arg-2-naphthylamide
Procedure: as §1

[4] = tested on: unfractionated bone cells (osteoclastic bone resorption); experiment: Bone resorption inhibitory action (pit formation on ivory slices, parathyroid hormone induced); type: cell-based, Sprague-Dawley rats; settings: 50 nM human parathyroid hormone, 72 hours, FIG. 1
Procedure: A method proposed by McSheehy, P. M. J. and Chambers, T. J. in J Clin. Invest., 80, 425-429 (1987) was partly modified and applied.
Unfractionated bone cells were prepared from tibiae, femora and humeri of 1 to 2 day-old Sprague-Dawley rats. The bones were dissected into soft tissues in an ice-cold medium (pH 7.2) [α-minimum essential medium (α-MEM) (Flow Laboratories, McLean, Va.), supplemented with 100 IU/ml of benzylpenicillin] containing 20 mM N-2-hydroxyethyl-piperazine-N'-ethanesulfonic acid (HEPES). In order to prepare a bone cell preparation, long bones were minced with a pair of scissors in the same medium. Subsequently, the cell suspension was triturated with a wide bored plastic pipette. 200 μl of cell suspension (1×10^6 cells/ml) was added to each well of a 96 well-plate containing an ivory slice (thickness: 150 μm, diameter: 6 mm; ultrasonicated and disinfected with 75% ethanol), and the cells were incubated at 37° C. for 2 hours in a CO2 incubator (5% CO2 : 95% air). The slices were washed with α-MEM, and transferred to a HEPES-free fresh medium containing 10% FBS, each of test samples of various concentrations and 50 nM of human parathyroid hormone (Peninsula Laboratories Inc., Belmond, Calif.) and incubated for 72 hours. […] The total area of pits was measured under a microscope to detect possible osteoclastic bone resorption.

[5] = biological target: cathepsin L; experiment: Enzymatic inhibitory activity against cathepsin L (kinetic analysis, Z-Phe-Arg-AMC substrate); type: biochemical
Procedure: as §2, §3, §4

B1: Elstatin: Novel 103-residue polypeptide (Sequence No. 1) isolated from pig leucocyte cytosol; specifically inhibits cathepsin L (protein)
chain: MESEEMLAGGLTEPRPATPEIQEIANKVKPQLEEKTNKTYEKFEAIIYRSQVVAGTNYYIKVHVGGNNYVHIRVFQSLPHQEDPLKLIGYQVDKTKDDELTGF
Ki [1]: 335 ± 50 nM | Ki [2]: 0.19 ± 0.097 nM | Ki [3]: 125 ± 7 nM | Bone resorption inhibitory action (total area of pits) [4]: significantly potent bone resorption inhibitory action | Ki ([5]; cathepsin L 60 pM, substrate Z-Phe-Arg-AMC 10 μM, 0.34M acetate buffer pH 5.5): 0.067 ± 0.036 nM | Specificity of inhibition among the cathepsin group ([5]; cathepsin L versus cathepsins B and H): specifically inhibits only cathepsin L among the members of the cathepsin group
